Measured values published in US20040265797A1 (CHIRON, published 2004).
Square brackets hold non-standard residues; d marks the D form. Ends that are not written are not given here. 1Nal = N[C@@H](Cc1cccc2ccccc12)C(=O)O; 2Nal = N[C@@H](Cc1ccc2ccccc2c1)C(=O)O; Nle = CCCC[C@H](N)C(=O)O; Abu = CC[C@H](N)C(=O)O

Target: T1, Soluble recombinant human urokinase receptor (suPAR) (human, UniProt Q03405 23-299, limits assumed, biotinylated in the plate assays (sites not given))
T1 construct: Only called a soluble truncated form of the urokinase receptor; also called soluble uPAR; biotinylated suPAR
Assay: competition with phage displaying peptide 25 for soluble uPAR
Procedure: The final anti-M13 conjugate dilution was 1:4000.
These concentrations were calculated based on the synthesis reactions.

T1 sequence (Q03405 23-299 limits assumed): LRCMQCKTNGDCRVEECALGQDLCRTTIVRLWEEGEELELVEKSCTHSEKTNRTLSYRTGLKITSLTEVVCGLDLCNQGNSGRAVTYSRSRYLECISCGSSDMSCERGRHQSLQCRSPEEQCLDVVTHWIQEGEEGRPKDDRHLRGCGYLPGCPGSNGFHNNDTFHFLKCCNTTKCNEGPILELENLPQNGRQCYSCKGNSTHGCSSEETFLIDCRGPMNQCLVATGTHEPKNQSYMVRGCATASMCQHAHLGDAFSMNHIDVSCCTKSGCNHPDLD

| Binder | % Inhibition at 2.5 uM [%] | % Inhibition at 5 uM [%] |
| --- | --- | --- |
| AESTYHHL[dS]LGYMYTLN-NH2 (N-terminus assumed; SMILES CSCC[C@H](NC(=O)[C@H](Cc1ccc(O)cc1)NC(=O)CNC(=O)[C@H](CC(C)C)NC(=O)[C@@H](CO)NC(=O)[C@H](CC(C)C)NC(=O)[C@H](Cc1c[nH]cn1)NC(=O)[C@H](Cc1c[nH]cn1)NC(=O)[C@H](Cc1ccc(O)cc1)NC(=O)[C@@H](NC(=O)[C@H](CO)NC(=O)[C@H](CCC(=O)O)NC(=O)[C@H](C)N)[C@@H](C)O)C(=O)N[C@@H](Cc1ccc(O)cc1)C(=O)N[C@H](C(=O)N[C@@H](CC(C)C)C(=O)N[C@@H](CC(N)=O)C(N)=O)[C@@H](C)O) [Analog 54] | 73 | 86 |
| A[dE]STYHHLSLGYMYTLN-NH2 (N-terminus assumed; SMILES CSCC[C@H](NC(=O)[C@H](Cc1ccc(O)cc1)NC(=O)CNC(=O)[C@H](CC(C)C)NC(=O)[C@H](CO)NC(=O)[C@H](CC(C)C)NC(=O)[C@H](Cc1c[nH]cn1)NC(=O)[C@H](Cc1c[nH]cn1)NC(=O)[C@H](Cc1ccc(O)cc1)NC(=O)[C@@H](NC(=O)[C@H](CO)NC(=O)[C@@H](CCC(=O)O)NC(=O)[C@H](C)N)[C@@H](C)O)C(=O)N[C@@H](Cc1ccc(O)cc1)C(=O)N[C@H](C(=O)N[C@@H](CC(C)C)C(=O)N[C@@H](CC(N)=O)C(N)=O)[C@@H](C)O) [Analog 47] | 35 | 61 |
| AESTYHHLSLGYMYTLN-NH2 (also called clone 25 peptide; analogs 3 and 4) [Peptide 25 (synthetic peptide of clone 25)] | 45 | 59 |
| AESTYHHLSLGYVYTLN-NH2 [Analog 43] | 63 | 82 |
| AESTFHHLSLGYMYTLN-NH2 [Analog 34] | 38 | 47 |
| AESTYHHLSLGYMYT[dL]N-NH2 (N-terminus assumed; SMILES CSCC[C@H](NC(=O)[C@H](Cc1ccc(O)cc1)NC(=O)CNC(=O)[C@H](CC(C)C)NC(=O)[C@H](CO)NC(=O)[C@H](CC(C)C)NC(=O)[C@H](Cc1c[nH]cn1)NC(=O)[C@H](Cc1c[nH]cn1)NC(=O)[C@H](Cc1ccc(O)cc1)NC(=O)[C@@H](NC(=O)[C@H](CO)NC(=O)[C@H](CCC(=O)O)NC(=O)[C@H](C)N)[C@@H](C)O)C(=O)N[C@@H](Cc1ccc(O)cc1)C(=O)N[C@H](C(=O)N[C@H](CC(C)C)C(=O)N[C@@H](CC(N)=O)C(N)=O)[C@@H](C)O) [Analog 60] | 22 | 75 |
| AESTYHHLSLGY[Abu]YTLN-NH2 (N-terminus assumed; SMILES CC[C@H](NC(=O)[C@H](Cc1ccc(O)cc1)NC(=O)CNC(=O)[C@H](CC(C)C)NC(=O)[C@H](CO)NC(=O)[C@H](CC(C)C)NC(=O)[C@H](Cc1c[nH]cn1)NC(=O)[C@H](Cc1c[nH]cn1)NC(=O)[C@H](Cc1ccc(O)cc1)NC(=O)[C@@H](NC(=O)[C@H](CO)NC(=O)[C@H](CCC(=O)O)NC(=O)[C@H](C)N)[C@@H](C)O)C(=O)N[C@@H](Cc1ccc(O)cc1)C(=O)N[C@H](C(=O)N[C@@H](CC(C)C)C(=O)N[C@@H](CC(N)=O)C(N)=O)[C@@H](C)O, T0004 prints Y there, as in peptide 25; Y is used) [Analog 45] | 31 | 59 |
| AESTYHHLSLGYMYTL[dN]-NH2 (N-terminus assumed; SMILES CSCC[C@H](NC(=O)[C@H](Cc1ccc(O)cc1)NC(=O)CNC(=O)[C@H](CC(C)C)NC(=O)[C@H](CO)NC(=O)[C@H](CC(C)C)NC(=O)[C@H](Cc1c[nH]cn1)NC(=O)[C@H](Cc1c[nH]cn1)NC(=O)[C@H](Cc1ccc(O)cc1)NC(=O)[C@@H](NC(=O)[C@H](CO)NC(=O)[C@H](CCC(=O)O)NC(=O)[C@H](C)N)[C@@H](C)O)C(=O)N[C@@H](Cc1ccc(O)cc1)C(=O)N[C@H](C(=O)N[C@@H](CC(C)C)C(=O)N[C@H](CC(N)=O)C(N)=O)[C@@H](C)O) [Analog 61] | 32 | 55 |
| AEST[2Nal]HHLSLGYMYTLN-NH2 (N-terminus assumed; SMILES CSCC[C@H](NC(=O)[C@H](Cc1ccc(O)cc1)NC(=O)CNC(=O)[C@H](CC(C)C)NC(=O)[C@H](CO)NC(=O)[C@H](CC(C)C)NC(=O)[C@H](Cc1c[nH]cn1)NC(=O)[C@H](Cc1c[nH]cn1)NC(=O)[C@H](Cc1ccc2ccccc2c1)NC(=O)[C@@H](NC(=O)[C@H](CO)NC(=O)[C@H](CCC(=O)O)NC(=O)[C@H](C)N)[C@@H](C)O)C(=O)N[C@@H](Cc1ccc(O)cc1)C(=O)N[C@H](C(=O)N[C@@H](CC(C)C)C(=O)N[C@@H](CC(N)=O)C(N)=O)[C@@H](C)O) [Analog 36] | 61 | 78 |
| AESTYHHLSLGY[Nle]YTLN-NH2 (N-terminus assumed; SMILES CCCC[C@H](NC(=O)[C@H](Cc1ccc(O)cc1)NC(=O)CNC(=O)[C@H](CC(C)C)NC(=O)[C@H](CO)NC(=O)[C@H](CC(C)C)NC(=O)[C@H](Cc1c[nH]cn1)NC(=O)[C@H](Cc1c[nH]cn1)NC(=O)[C@H](Cc1ccc(O)cc1)NC(=O)[C@@H](NC(=O)[C@H](CO)NC(=O)[C@H](CCC(=O)O)NC(=O)[C@H](C)N)[C@@H](C)O)C(=O)N[C@@H](Cc1ccc(O)cc1)C(=O)N[C@H](C(=O)N[C@@H](CC(C)C)C(=O)N[C@@H](CC(N)=O)C(N)=O)[C@@H](C)O) [Analog 44] | – | 91 |
| AEST[1Nal]HHLSLGYMYTLN-NH2 (N-terminus assumed; SMILES CSCC[C@H](NC(=O)[C@H](Cc1ccc(O)cc1)NC(=O)CNC(=O)[C@H](CC(C)C)NC(=O)[C@H](CO)NC(=O)[C@H](CC(C)C)NC(=O)[C@H](Cc1c[nH]cn1)NC(=O)[C@H](Cc1c[nH]cn1)NC(=O)[C@H](Cc1cccc2ccccc12)NC(=O)[C@@H](NC(=O)[C@H](CO)NC(=O)[C@H](CCC(=O)O)NC(=O)[C@H](C)N)[C@@H](C)O)C(=O)N[C@@H](Cc1ccc(O)cc1)C(=O)N[C@H](C(=O)N[C@@H](CC(C)C)C(=O)N[C@@H](CC(N)=O)C(N)=O)[C@@H](C)O) [Analog 35] | 70 | 94 |
| [dA]ESTYHHLSLGYMYTLN-NH2 (N-terminus assumed; SMILES CSCC[C@H](NC(=O)[C@H](Cc1ccc(O)cc1)NC(=O)CNC(=O)[C@H](CC(C)C)NC(=O)[C@H](CO)NC(=O)[C@H](CC(C)C)NC(=O)[C@H](Cc1c[nH]cn1)NC(=O)[C@H](Cc1c[nH]cn1)NC(=O)[C@H](Cc1ccc(O)cc1)NC(=O)[C@@H](NC(=O)[C@H](CO)NC(=O)[C@H](CCC(=O)O)NC(=O)[C@@H](C)N)[C@@H](C)O)C(=O)N[C@@H](Cc1ccc(O)cc1)C(=O)N[C@H](C(=O)N[C@@H](CC(C)C)C(=O)N[C@@H](CC(N)=O)C(N)=O)[C@@H](C)O) [Analog 46] | 41 | 57 |
